Changes are numbered by the printed parent chain. Names may count otherwise.
Legend:
[1] = biological target: T1, Sporidiobolus salmonicolor ketoreductase, wild type (WT), UniProt Q9UUN9, SEQ ID NO: 1 (Sporobolomyces salmonicolor, UniProt Q9UUN9); assay: Kinetic characterization (app. KM, app. kcat), Table 9c, wild type; type: biochemical; details: reference = 1
T1 sequence (Q9UUN9 1-343): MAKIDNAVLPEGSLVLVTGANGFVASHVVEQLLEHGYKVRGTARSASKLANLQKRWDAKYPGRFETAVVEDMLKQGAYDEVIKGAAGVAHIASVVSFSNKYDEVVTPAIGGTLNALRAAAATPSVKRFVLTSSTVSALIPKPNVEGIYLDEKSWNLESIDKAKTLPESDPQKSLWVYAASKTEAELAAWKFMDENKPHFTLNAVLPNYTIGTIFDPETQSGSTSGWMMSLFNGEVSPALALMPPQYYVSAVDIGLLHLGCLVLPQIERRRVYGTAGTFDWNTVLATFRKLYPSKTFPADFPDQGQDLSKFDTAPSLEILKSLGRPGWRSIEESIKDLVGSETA

[2] = biological target: T2, Sporidiobolus salmonicolor ketoreductase variant E00158, Trp97_Lys238_Met241_Trp242_Ser245_Met316_Met342, SEQ ID NO: 6, His-tag (Sporobolomyces salmonicolor, UniProt Q9UUN9, A238K/F97W/L241M/L316M/M242W/Q245S/T342M); assay: Kinetic characterization (app. KM, app. kcat), Table 9c, variant E00158; type: biochemical; details: E00158, relative to WT = 1
T2 sequence (Q9UUN9 1-343 F97W/A238K/L241M/M242W/Q245S/L316M/T342M): T1 sequence (Q9UUN9 1-343) with F97W, A238K, L241M, M242W, Q245S, L316M, T342M

[3] = biological target: T3, Sporidiobolus salmonicolor ketoreductase variant E00128, Trp97_Met241_Trp242_Ser245, SEQ ID NO: 2, His-tag (Sporobolomyces salmonicolor, UniProt Q9UUN9, F97W/L241M/M242W/Q245S); assay: Kinetic characterization (app. KM, app. kcat), Table 9c, variant E00128; type: biochemical; details: E00128, relative to WT = 1
T3 sequence (Q9UUN9 1-343 F97W/L241M/M242W/Q245S): T1 sequence (Q9UUN9 1-343) with F97W, L241M, M242W, Q245S

[4] = biological target: T4, Sporidiobolus salmonicolor ketoreductase variant E00184 (second line so labelled); in Table 9b W97 V134 A224 K238 M241 W242 S245 G246 M316 M342, the mutations of (Sporobolomyces salmonicolor, UniProt Q9UUN9, A238K/F97W/L241M/L316M/M242W/Q245S/S224A/T134V/T342M/Y246G); assay: Kinetic characterization (app. KM, app. kcat), Table 9c, variant E00184 (second line); type: biochemical; details: relative to WT = 1
T4 construct: second row labelled E00184, evidently E00185
T4 sequence (Q9UUN9 1-343 F97W/T134V/S224A/A238K/L241M/M242W/Q245S/Y246G/L316M/T342M): T1 sequence (Q9UUN9 1-343) with F97W, T134V, S224A, A238K, L241M, M242W, Q245S, Y246G, L316M, T342M

[5] = biological target: T5, Sporidiobolus salmonicolor ketoreductase variant E00184, Trp97_Ala224_Lys238_Met241_Trp242_Ser245_Gly246_Met316_Met342, SEQ ID NO: 8, His-tag (Sporobolomyces salmonicolor, UniProt Q9UUN9, A238K/F97W/L241M/L316M/M242W/Q245S/S224A/T342M/Y246G); assay: Kinetic characterization (app. KM, app. kcat), Table 9c, variant E00184 (first line); type: biochemical; details: relative to WT = 1
T5 sequence (Q9UUN9 1-343 F97W/S224A/A238K/L241M/M242W/Q245S/Y246G/L316M/T342M): T1 sequence (Q9UUN9 1-343) with F97W, S224A, A238K, L241M, M242W, Q245S, Y246G, L316M, T342M

[6] = biological target: T6, Sporidiobolus salmonicolor ketoreductase variant E00144, Trp97_Met241_Trp242_Ser245_Met316_Met342, SEQ ID NO: 3, His-tag (Sporobolomyces salmonicolor, UniProt Q9UUN9, F97W/L241M/L316M/M242W/Q245S/T342M); assay: Kinetic characterization (app. KM, app. kcat), Table 9c, variant E00144; type: biochemical; details: E00144, relative to WT = 1
T6 sequence (Q9UUN9 1-343 F97W/L241M/M242W/Q245S/L316M/T342M): T1 sequence (Q9UUN9 1-343) with F97W, L241M, M242W, Q245S, L316M, T342M

[7] = biological target: T7, Sporidiobolus salmonicolor ketoreductase variant E00174, Trp97_Lys238_Met241_Trp242_Ser245_Gly246_Met316_Met342, SEQ ID NO: 7, His-tag (Sporobolomyces salmonicolor, UniProt Q9UUN9, A238K/F97W/L241M/L316M/M242W/Q245S/T342M/Y246G); assay: Kinetic characterization (app. KM, app. kcat), Table 9c, variant E00174; type: biochemical
T7 sequence (Q9UUN9 1-343 F97W/A238K/L241M/M242W/Q245S/Y246G/L316M/T342M): T1 sequence (Q9UUN9 1-343) with F97W, A238K, L241M, M242W, Q245S, Y246G, L316M, T342M

[8] = substrate: C[C@@H]1CC(=O)c2ncnc(N3CCN(C(=O)OC(C)(C)C)CC3)c21; assay: Kinetic characterization (app. KM, app. kcat), Table 9c, variant E00144; type: biochemical, Sporidiobolus salmonicolor; details: other: E00144; pH 7.0
[9] = substrate: C[C@@H]1CC(=O)c2ncnc(N3CCN(C(=O)OC(C)(C)C)CC3)c21; assay: Kinetic characterization (app. KM, app. kcat), Table 9c, variant E00128; type: biochemical, Sporidiobolus salmonicolor; details: other: E00128; pH 7.0
[10] = substrate: C[C@@H]1CC(=O)c2ncnc(N3CCN(C(=O)OC(C)(C)C)CC3)c21; assay: Kinetic characterization (app. KM, app. kcat), Table 9c, wild type; type: biochemical, Sporidiobolus salmonicolor; details: other: WT; pH 7.0
[11] = substrate: C[C@@H]1CC(=O)c2ncnc(N3CCN(C(=O)OC(C)(C)C)CC3)c21; assay: Kinetic characterization (app. KM, app. kcat), Table 9c, variant E00184 (first line); type: biochemical, Sporidiobolus salmonicolor; details: other: E00184, first line; pH 7.0
[12] = substrate: C[C@@H]1CC(=O)c2ncnc(N3CCN(C(=O)OC(C)(C)C)CC3)c21; assay: Kinetic characterization (app. KM, app. kcat), Table 9c, variant E00184 (second line); type: biochemical, Sporidiobolus salmonicolor; details: other: E00184, second line; pH 7.0
[13] = substrate: C[C@@H]1CC(=O)c2ncnc(N3CCN(C(=O)OC(C)(C)C)CC3)c21; assay: Kinetic characterization (app. KM, app. kcat), Table 9c, variant E00158; type: biochemical, Sporidiobolus salmonicolor; details: other: E00158; pH 7.0

C[C@@H]1CC(=O)c2ncnc(N3CCN(C(=O)OC(C)(C)C)CC3)c21 [ketone of formula Ib]
rel. kcat [1]: 1 | rel. kcat [2]: 31 | rel. kcat [3]: 12 | rel. kcat [4]: 64 | rel. kcat [5]: 43 | rel. kcat [6]: 13 | rel. kcat ([7]; relative to WT = 1, substrate saturation not reached): 94 | app. kcat ([7]; substrate saturation not reached): 45.8 ± 2.4 min−^1

B1: Sporidiobolus salmonicolor ketoreductase variant E00144, Trp97_Met241_Trp242_Ser245_Met316_Met342, SEQ ID NO: 3, His-tag (Sporobolomyces salmonicolor; … (protein)
chain: T1 sequence (Q9UUN9 1-343) with F97W, L241M, M242W, Q245S, L316M, T342M
Km [8]: 175.2 ± 9.9 µM | kcat [8]: 0.103 ± 0.00333 s⁻¹ | kcat/Km [8]: 593 M⁻¹ s⁻¹

B2: Sporidiobolus salmonicolor ketoreductase variant E00128, Trp97_Met241_Trp242_Ser245, SEQ ID NO: 2, His-tag (Sporobolomyces salmonicolor; F97W/L241M/M242W/Q245S) (protein)
chain: T1 sequence (Q9UUN9 1-343) with F97W, L241M, M242W, Q245S
Km [9]: 162.8 ± 7.8 µM | kcat [9]: 0.0967 ± 0.00167 s⁻¹ | kcat/Km [9]: 592 M⁻¹ s⁻¹

B3: Sporidiobolus salmonicolor ketoreductase, wild type (WT), UniProt Q9UUN9, SEQ ID NO: 1 (Sporobolomyces salmonicolor) (protein)
chain: T1 sequence (Q9UUN9 1-343)
Km [10]: 11.9 ± 1.1 µM | kcat [10]: 0.00817 ± 0.000333 s⁻¹ | kcat/Km [10]: 683 M⁻¹ s⁻¹

B4: Sporidiobolus salmonicolor ketoreductase variant E00184, Trp97_Ala224_Lys238_Met241_Trp242_Ser245_Gly246_Met316_Met342, SEQ ID NO: 8, His-tag (Sporobolomyces … (protein)
chain: T1 sequence (Q9UUN9 1-343) with F97W, S224A, A238K, L241M, M242W, Q245S, Y246G, L316M, T342M
Km [11]: 471.7 ± 34.6 µM | kcat [11]: 0.355 ± 0.0167 s⁻¹ | kcat/Km [11]: 753 M⁻¹ s⁻¹

B5: Sporidiobolus salmonicolor ketoreductase variant E00184 (second line so labelled; in Table 9b W97 V134 A224 K238 M241 W242 S245 G246 M316 M342, the mutations … (protein)
chain: T1 sequence (Q9UUN9 1-343) with F97W, T134V, S224A, A238K, L241M, M242W, Q245S, Y246G, L316M, T342M
notes: second row labelled E00184, evidently E00185
Km [12]: 143.5 ± 5.5 µM | kcat [12]: 0.525 ± 0.0133 s⁻¹ | kcat/Km [12]: 3660 M⁻¹ s⁻¹

B6: Sporidiobolus salmonicolor ketoreductase variant E00158, Trp97_Lys238_Met241_Trp242_Ser245_Met316_Met342, SEQ ID NO: 6, His-tag (Sporobolomyces salmonicolor; … (protein)
chain: T1 sequence (Q9UUN9 1-343) with F97W, A238K, L241M, M242W, Q245S, L316M, T342M
Km [13]: 299.7 ± 7.9 µM | kcat [13]: 0.255 ± 0.00667 s⁻¹ | kcat/Km [13]: 853 M⁻¹ s⁻¹

From patent US20260117203A1, “MUTANT KETOREDUCTASE WITH INCREASED KETOREDUCTASE ACTIVITY AS WELL AS METHODS AND USES INVOLVING THE SAME” (Hoffmann-La Roche Inc., priority 2023, published 2026)
